From paper PMC10021052, “Novel multivalent S100A8 inhibitory peptides attenuate tumor progression and metastasis by inhibiting the TLR4-dependent pathway” (Cancer Gene Therapy, 2023)
Entries after “also recorded” stand apart in the source; their conditions may differ.

Legend:
[1] = test system: p38 and p65 (NF-κB) in SW480 cells; settings: ref [8]; cited from earlier work
Text: TLR4/MD-2 dimerizes upon ligand binding. To attempt the inhibitory peptide fitted into dimerized forms, we generated a divalent peptide of peptide3A5 using Fmoc-Lys (Fmoc)-OH to form two branches in the peptide chain. […] We then examined the effect of divalent peptide3A5 on TLR4/MD-2 downstream signaling. […] Pretr ...

[2] = test system: S100A8-mediated cell migration; settings: ref [8]; cited from earlier work
Text: VEGF is another NFκB-mediated re ...

MDSCs = assay: In vivo S100A8 stimulation, MDSC recruitment to lungs; design: species or system C57BL/6J mice; settings: recombinant S100A8 i.v., 4 h; *P < 0.05 vs control
Procedure: Balb nu/nu or C57BL/6J mice were purchased from Clea Japan Inc. (Tokyo, Japan). Mice were used for experiments at 2–3 months of age. […] For in vivo S100A8 stimulation, C57BL/6J mice were intravenously injected with mammalian-derived S100A8. Four hours after the i.v. injection, mice were sacrificed, and minced mouse lungs were digested with collagenase/dispase/DNase solution. Collected cells were incubated with anti-CD11b-PE (BD Bioscience), anti-Ly6G-FITC (BD Bioscience), and anti-Ly6C-APC (BD Bioscience) antibodies, and analyzed by a flow cytometry (Cytomics FC500; Beckman Coulter, Brea, CA, USA). […] The mice were sacrificed after 16 h, and minced mouse lungs were digested with collagenase/dispase/DNase solution. The recruitment of MDSCs or PKH-26 labeled tumor cells in the lungs was determined by flow cytometry (CytoFlex; Beckman Coulter).

PD-L1 in macrophages = test system: PD-L1 in macrophages; design: method as in PMID 32198140; settings: ref [29]; cited from earlier work
[3] = molecular target: human TLR4/MD-2 complex (human) (UniProt O00206)
human TLR4/MD-2 complex (human), sequence (O00206 24-839, chain 1 of 2): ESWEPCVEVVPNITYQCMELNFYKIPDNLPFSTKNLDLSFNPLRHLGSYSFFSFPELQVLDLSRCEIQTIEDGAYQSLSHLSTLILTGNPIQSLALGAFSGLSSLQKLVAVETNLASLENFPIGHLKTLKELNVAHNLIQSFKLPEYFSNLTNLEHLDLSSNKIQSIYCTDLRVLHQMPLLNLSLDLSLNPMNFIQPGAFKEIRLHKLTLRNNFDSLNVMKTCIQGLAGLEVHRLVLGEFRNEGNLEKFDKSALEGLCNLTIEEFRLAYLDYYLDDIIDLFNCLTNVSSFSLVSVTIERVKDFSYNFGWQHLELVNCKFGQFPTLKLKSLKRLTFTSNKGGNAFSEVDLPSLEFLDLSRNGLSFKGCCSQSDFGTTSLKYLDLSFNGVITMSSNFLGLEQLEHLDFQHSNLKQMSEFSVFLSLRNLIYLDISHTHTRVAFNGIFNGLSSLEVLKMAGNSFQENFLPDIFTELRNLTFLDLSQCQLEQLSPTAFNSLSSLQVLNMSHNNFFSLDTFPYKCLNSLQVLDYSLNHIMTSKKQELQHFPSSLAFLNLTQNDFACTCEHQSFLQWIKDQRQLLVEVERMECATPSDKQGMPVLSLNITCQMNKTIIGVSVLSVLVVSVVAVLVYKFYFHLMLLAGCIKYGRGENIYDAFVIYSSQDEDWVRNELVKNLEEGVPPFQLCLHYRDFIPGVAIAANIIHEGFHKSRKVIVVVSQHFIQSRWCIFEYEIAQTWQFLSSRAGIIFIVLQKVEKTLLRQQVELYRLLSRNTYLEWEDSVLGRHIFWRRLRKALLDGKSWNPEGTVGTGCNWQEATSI
human TLR4/MD-2 complex (human), sequence (Q9Y6Y9 19-160, chain 2 of 2, further chain): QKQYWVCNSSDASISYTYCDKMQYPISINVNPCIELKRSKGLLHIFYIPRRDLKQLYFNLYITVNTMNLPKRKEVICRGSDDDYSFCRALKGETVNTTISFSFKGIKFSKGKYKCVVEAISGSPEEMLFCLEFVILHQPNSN

SW480 cells = assay: qPCR, S100A8-mediated IL-8 and VEGF mRNA induction in SW480 cells; type: cell-based, human; settings: Fig. 2E
Procedure: SW480 cells were treated with S100A8 in Dulbecco’s Modified Eagle Medium/HamF12 supplemented with 0.1% bovine serum albumin for cytokine induction. Total RNA was extracted using the RNeasy Mini Plus (Qiagen, Hilden, Germany). Complementary DNA was synthesized using the PrimeScript 1st Strand Synthesis kit (Takara Bio, Japan). Quantitative PCR (qPCR) analysis was performed using the PowerUp^TM SYBR^TM Green mixture (Thermo Fisher Scientific) and the StepOnePlus Real Time PCR System (Thermo Fisher Scientific). Gene expression levels were calculated from Ct values, and the relationship between the Ct value and the logarithm of the copy number of a target gene was confirmed to be on a linear line using the corresponding isolated DNA and its serial dilutions as a standard. Thus, the gene expression levels of IL-8 and VEGF were normalized against that of β-actin in each sample. The following primers were used; β-actin, 5′-[…]-3′ and 5′-[…]-3′; IL-8, 5′-[…]-3′ and 5′-[…]-3′; VEGF, 5′-[…]-3′ and 5′-[…]-3′.
Fig. 2 Identification of S100A8 binding sites to human TLR4/MD-2. […] TLR4/MD-2 recombinant proteins were immobilized to the ELISA plate. After blocking, a full length or deletion mutant of S100A8 was added to the plate. The more detailed methods are described in Materials and Methods. […] B A series of overlapping S100A8 synthetic peptides. The TLR4/MD-2 recombinant proteins were added to each well of peptide immobilized plates. The affinity to TLR4/MD-2 was determined. Data are shown as mean ± SD. C The competitive activity was determined using ELISA. Data are shown as mean ± SD. D The TLR4/MD-2 was mixed with S100A8 with/without the indicated peptides, and immunoprecipitated using an anti-TLR4 antibody. TLR4 or S100A8 was visualized. Similar results were obtained in three independent experiments. […] Total RNAs from SW480 cells with/without treatment of the peptide candidates were extracted and qPCR analysis was performed using relevant primer sets and SYBR green. Relative expression levels were compared. […] TEXT PRINTED IN THE PICTURE: (A) Full length: TLR4/MD-2 binding: + | (A) S100A8-ΔC: TLR4/MD-2 binding: − | (A) S100A8-N: TLR4/MD-2 binding: −
Fig. 4 Improvement of competitive inhibition activity by divalent peptide3A5. A The binding capacity was measured at the indicated concentration using an ELISA-based assay. Similar results were obtained in three independent experiments. B SW480 cells were pretreated with 2.5 µM of divalent peptide3A5, and then stimulated with human S100A8 recombinant protein. After 30 min, cell lysates were subjected to western blotting using the indicated antibody. The divalent peptide#3 or peptide3A5 reduced the expression of S100A8-mediated IL-8 (C) and VEGF (D) induction. Total RNAs from SW480 cells with/without treatment of the peptide candidates were extracted and qPCR analysis was performed using relevant primer sets and SYBR green. Relative expression levels were compared. Peptide #3 suppresses S100A8-mediated IL-8(E) and VEGF (F) secretion in SW480 cells.

[4] = test system: tumor cells and macrophages; settings: ref [8]; cited from earlier work
Text: S100A8 belongs to the S100s family and is characterized by two calcium-binding EF-hand motifs: a carboxyl-terminal EF-hand (high affinity to calcium), and an N-terminal EF-hand (low affinity to calcium) that are connected by a central hinge. Like most S100 proteins, S100A8 can form a heterodimer with S100A9 or can exist as a homodimer or monomer. Vogl et al. originally reported that S100A8-mediated cytokine induction was mediated via TLR4 [5].

B1: human S100A8 recombinant protein, full length (natural protein)
chain: MLTELEKALNSIIDVYHKYSLIKGNFHAVYRDDLKKLLETECPQYIRKKGADVWFKELDINTDGAVNFQEFLILVIKMGVAAHKKSHEESHKE
[1]
  phosphorylation of p38 MAP kinase / NF-κB activation by S100A8: induced phosphorylation of p38 MAP kinase, followed by activation of NF-κB signaling
[2]
  cell migration induced by S100A8: induces cell migration in a TLR4-dependent manner
MDSCs
  recruitment of MDSCs from bone marrow to lungs: increased the recruitment of MDSCs from the bone marrow to the lungs; also recorded: induces pulmonary recruitment of MDSCs from bone marrow
PD-L1 in macrophages
  PD-L1 expression in macrophages: upregulated PD-L1 in macrophages via a TLR4-dependent pathway
[3]
  S100A8-induced phosphorylation of p38 in SW480 cells pretreated with 2.5 µM divalent peptide3A5: fold inhibition: 1.3 fold
  S100A8-induced phosphorylation of p65 (NF-κB) in SW480 cells pretreated with 2.5 µM divalent peptide3A5: fold inhibition: 1.7 fold
SW480 cells
  IL-8 production induced by S100A8: induced IL-8 production
[4]
  induction of inflammatory cytokines/chemokines by S100A8: induced inflammatory cytokines/chemokines in a TLR4-dependent manner
